Laboratory results taken from article PMC4831350.
Blank lines part the entries; values can stand above or below the substance they belong to.

Columns and labels:
[1] = molecular target: human receptor for advanced glycation endproducts (RAGE) on A375-hRAGE cells (human) (UniProt Q15109)
[2] = molecular target: receptor for advanced glycation endproducts (RAGE) on wild-type A375 cells (human (endogenous in A375)) (UniProt Q15109)
[3] = molecular target: extracellular S100A4 secreted by A375-hS100A4 cells (human) (UniProt P26447)
[4] = molecular target: extracellular S100A4 secreted by A375 cells (human (endogenous in A375)) (UniProt P26447)

decrease of invasion of A375-hRAGE cells (Boyden chamber with Matrigel) with blocking anti-RAGE antibody (10 μg/ml; R&D), against untreated cells [1]: 15% | decrease of migration of A375-hRAGE cells (Boyden chamber) with blocking anti-RAGE antibody (10 μg/ml; R&D), against untreated cells [1]: 10%
Substance: extracellular S100A4 secreted by A375 cells (from UniProt P26447 1-101) (natural protein)

increase of invasion of A375-hRAGE cells (Boyden chamber with Matrigel) with recombinant S100A4 (3000 ng/ml), against untreated cells [1]: 13% | increase of migration of A375-hRAGE cells (Boyden chamber) with recombinant S100A4 (3000 ng/ml), against untreated cells [1]: 23% | increase of invasion of A375 cells (Boyden chamber with Matrigel) with recombinant S100A4 (150 ng/ml), against untreated cells [2]: 21% | increase of migration of A375 cells (Boyden chamber) with recombinant S100A4 (150 ng/ml), against untreated cells [2]: 36%
Substance: recombinant human S100A4 (from UniProt P26447 1-101) (natural protein)

decrease of invasion of A375-hS100A4 cells (Boyden chamber with Matrigel) with sRAGE (150 ng/ml), against untreated cells; blocks extracellular S100A4 from membrane RAGE [3]: 15% | decrease of migration of A375-hS100A4 cells (Boyden chamber) with sRAGE (150 ng/ml), against untreated cells; blocks extracellular S100A4 from membrane RAGE [3]: 24% | relative migration of A375 cells (Boyden chamber) with sRAGE (150 ng/ml), untreated cells set as 100%; blocks extracellular S100A4 from membrane RAGE [4]: 63%
Substance: soluble RAGE (sRAGE) (domain or fragment)
